± gives the standard deviation of the averaged measurements.
Test system: ATP
Experiment: switch fluorescence ratio, 500 uM ATP over buffer (Cy3 cluster intensity, sum of 5 cycles each) (fold (ratio)); higher = stronger signal-on switching upon ATP binding; sequences stand for … in TCGTCGGCAGCGTCAGATGTGTATAAGAGACAGTTTTTTTTTTTTTTTTTTTTTTTTT…TC
Conditions: aptamer strand: ATP DNA aptamer (quencher-CACCTGGGGGAGTATTGCGGAGGAAGG + anchor), 100 nM annealed; ATP concentration: 500 uM
Procedure, shortened: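 Switching-strand clusters labelled with Cy3 on a modified Illumina MiSeq flow-cell were annealed to 100 nM quencher-labelled ATP aptamer, imaged in selection buffer, and re-imaged after 15 min with 500 uM ATP at 22 °C. This was done over five cycles with NaOH stripping and re-annealing in between. The fluorescence ratio is summed target-cycle over summed buffer-cycle Cy3 intensity per cluster, averaged per switch-domain sequence, excluding clusters outside 100-1000 RFU.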
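Also: ATP exposure 15 min at 22 °C before imaging.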

Sequence	switch fluorescence ratio
GGGAGTAGTT	1.01 ± 0.025
AGGCAGGGGA	1.03 ± 0.025
CATGGTTGGT	0.969 ± 0.025
TCGTTTATAT	1.01 ± 0.04
AAAATGGTCA	1.0102 ± 0.00092
GGGCAGGGGG	1.01 ± 0.04
AATGTCATCA	0.993 ± 0.013
AGATCGTGGG	1.04 ± 0.015
TAAGGCTGTG	1 ± 0.017
CTGGGGTAGT	1.03 ± 0.022
AGGTCGGGAG	0.9895 ± 0.0072
GGTGAATAAT	0.9969 ± 0.0065
ATATCGTCGG	0.988 ± 0.028
GGGGAAAACA	1 ± 0.014
AACGGCTCTC	0.988 ± 0.043
TTAAAAAGGA	0.986 ± 0.016
ATCGTTTAAT	0.9671 ± 0.003
GCTGGGAATT	1 ± 0.016
GGGGGTATGA	1.02 ± 0.022
TACTTACTAA	1.19 ± 0.036
CTATTTTGAT	0.979 ± 0.024
ATTACGGCAT	1.18 ± 0.047
ACACAGTACT	1.37 ± 0.09
CGCTTATGCA	1.02 ± 0.02
GGGGGCAATG	1.13 ± 0.064

Sequence	switch fluorescence ratio
TTGGATTTCA	0.972 ± 0.045
TTGTGAAAAA	0.972 ± 0.026
TGGGAATAAT	1.03 ± 0.031
CTAAGAGGCG	0.988 ± 0.024
AGGGTGGGGG	1.03 ± 0.036
ATGTATCATG	1 ± 0.033
TGAAATTGGA	0.999 ± 0.015
GGTACAGAGC	1 ± 0.064
TTTAGGGACT	1.02 ± 0.024
GATAGTTGGT	1 ± 0.021
AACGCCTTCG	1.177 ± 0.011
TCGTTTAACA	0.9602 ± 0.0092
AAGTTAAAA	1.04 ± 0.092
CATAAGGGTG	1.09 ± 0.038
AATGTCAATG	0.991 ± 0.021
AATTTGCGTT	0.999 ± 0.013
GGGTACTGTG	0.971 ± 0.015
CAAACAGTTT	0.994 ± 0.029
TTTAAAGCGG	1.01 ± 0.026
TATGGGAGGG	0.952 ± 0.022
CAGGGGCGTG	0.9921 ± 0.0079
TGGAATTGTT	1 ± 0.026
TTAGCTTGTA	1.07 ± 0.088
CATGATCTCT	0.987 ± 0.071
AAATTCATAG	1.019 ± 0.0033

Sequence	switch fluorescence ratio
GCCTTGGTGC	1.08 ± 0.018
AAGGACGCCA	1.05 ± 0.028
GGTTAGGGCG	1.0062 ± 0.00068
TCGCTTGGGG	1 ± 0.013
AAACTGAATA	1.03 ± 0.016
AAAGTAAAGT	1.01 ± 0.028
TAACGGACTA	1.29 ± 0.023
TGGATAAGTG	0.998 ± 0.048
GCGCGAGGGG	1.01 ± 0.02
CTGTGGCCGG	0.967 ± 0.017
ATTAAGATGT	1.002 ± 0.0049
ACTTGCACTC	1.34 ± 0.057
TATTTTGGTG	0.984 ± 0.033
AAAAGGTTGG	0.997 ± 0.015
TAAAGTAGAT	0.988 ± 0.027
GTTGTAAAAA	0.968 ± 0.046
GTTCGGGATT	0.981 ± 0.023
GAATTTGTCC	0.988 ± 0.013
GACAAAACTA	1.16 ± 0.064
CAGTTCTGTA	1.01 ± 0.038
TTATAGATGT	0.992 ± 0.027
ATATCCCTCG	1.01 ± 0.013
TTTTTTACTA	1.023 ± 0.0015
TGGGGATTTA	1.003 ± 0.0072
TGAGAGGCGT	1.022 ± 0.0098

Sequence	switch fluorescence ratio
CGGAATAGTG	1.2 ± 0.039
TACCTTGAGC	0.9999 ± 0.0034
GCGCGTCGCA	1.02 ± 0.025
AGCTAGGGTC	1.05 ± 0.049
ACGGGGTGGA	1 ± 0.037
TTCGGGGTTA	1.01 ± 0.018
TTAACATTAC	1.38 ± 0.11
TCTTGGGGGT	1.03 ± 0.049
CCAATAAGGG	0.994 ± 0.048
GGATGCGCAG	0.987 ± 0.016
CATATGAGGG	0.991 ± 0.07
TCTGTTCTTG	0.987 ± 0.012
GTTCCGCCGA	1.23 ± 0.026
CATTTGTGGG	0.993 ± 0.017
TGTTGGGGCG	1.02 ± 0.069
TAGTGTATTG	1.01 ± 0.012
CGCCTCGGGC	1.02 ± 0.016
GGGGTTAGGT	1.01 ± 0.031
GCCAGATAGG	0.9562 ± 0.0088
GTTCGAGAGC	0.995 ± 0.057
TTGTTGTGTG	0.973 ± 0.033
CGGGGCGTGT	0.988 ± 0.046
GGAACTGGAG	1.07 ± 0.031
AGGTCTGCGG	0.967 ± 0.025
TGGATCATAG	0.999 ± 0.038

Sequence	switch fluorescence ratio
GGGGGGTCGA	1 ± 0.021
AGGGACTAGG	0.994 ± 0.011
GATGGGGAGG	0.98 ± 0.032
GGACCGCATT	2.5 ± 0.22
GCGCCCATCT	1.02 ± 0.017
TGAGAAAATT	1.017 ± 0.0034
AATTTGCGGC	0.982 ± 0.029
TCAGAATCGT	0.988 ± 0.026
GATACCCTTG	1.01 ± 0.013
AAGGGTAACA	0.991 ± 0.019
CGGTGGCGGG	1.004 ± 0.0095
AGATCGCTTG	0.975 ± 0.0019
TACTGACGGT	1.4 ± 0.032
GTCCGGGTTT	1.01 ± 0.036
GAGAAGAGGC	1.13 ± 0.023
AAAAGCTCCG	1.05 ± 0.033
TAATCGTGTG	0.985 ± 0.067
TTAGCTTTTT	1.01 ± 0.054
AAGGTTTGTT	0.996 ± 0.049
CGTGGGGCAC	1.01 ± 0.024
TTTTTGTTGA	0.991 ± 0.026
TGGGTTCGGC	0.9808 ± 0.0045
AATTTGGAAG	0.981 ± 0.027
TGATGACCAT	1.006 ± 0.0079
TTAACTGCTT	0.9894 ± 0.0088

Sequence	switch fluorescence ratio
ATTATGTCGT	1 ± 0.013
TAGGGGCAGG	1.07 ± 0.022
GATATTAAGC	1.01 ± 0.026
CGGTGGTCGC	0.984 ± 0.019
TAGTTACGGT	1.05 ± 0.064
TATCACTGTT	1.05 ± 0.079
ATTTACATTT	1.02 ± 0.011
ATACGGGGAT	1.014 ± 0.0093
GATCGTCTGC	0.925 ± 0.035
GGTATTTTTA	0.9758 ± 0.0046
ATCGGGTAA	0.9965 ± 0.0029
GGCAGTTTTT	0.985 ± 0.02
TCCTTTGTAT	1.1 ± 0.015
GATAAGGAAC	0.9788 ± 0.0072
ATTCACAGTT	1.03 ± 0.033
TATGCGTTTT	0.98 ± 0.013
TTTACGTAGT	1.03 ± 0.019
TTAAGGGCCA	0.9709 ± 0.0035
ATGGTCTGCG	1 ± 0.018
GAGGTTTATA	0.984 ± 0.043
GCAAGGGTAT	1.01 ± 0.025
TGGTCGGCTG	1.007 ± 0.0044
AAAAGAATCG	0.996 ± 0.049
AAAAGGGCGT	0.9944 ± 0.0066
ACTTAAAATT	0.996 ± 0.044

Sequence	switch fluorescence ratio
CGTTTTGATT	0.997 ± 0.013
AAGTACCCGG	1.14 ± 0.026
GTTTATGGGT	1.023 ± 0.009
CAGCTGGCGC	0.9949 ± 0.0083
ATACTGAGGA	1.05 ± 0.026
TGGACTTGGT	0.97 ± 0.017
GAGATGTTTA	0.987 ± 0.029
GCCTGGGGGC	0.967 ± 0.019
TTTTACGCTT	1.04 ± 0.017
CGTGTAATGT	0.985 ± 0.048
TCTGTAGCTG	1.3 ± 0.015
TTTTAAAAGG	0.99 ± 0.037
CTCTGATGGG	0.986 ± 0.021
AGAAGGTTTG	0.963 ± 0.01
AATTAAAAGT	0.989 ± 0.017
ACTTGTCGCG	1.02 ± 0.033
GATTTGGAAG	1.01 ± 0.024
GCTATTGGTA	1.01 ± 0.03
TTCCCTAATG	1 ± 0.033
CAACATCACG	1.52 ± 0.057
TGAATGATC	1 ± 0.043
TAGCTGAGGG	0.997 ± 0.015
GTTTTTCTGT	1.01 ± 0.014
TTAATGGTAT	1.02 ± 0.021
TAGGGAGAAA	1.46 ± 0.64

Sequence	switch fluorescence ratio
TTTAGGGACA	1.15 ± 0.1
CTTGCCGCGC	1.13 ± 0.017
GAAATTGACC	1.02 ± 0.038
GAACTAAGCT	1.01 ± 0.028
ATATAGAGG	1.02 ± 0.019
ATTGCCGCTC	1.04 ± 0.036
ACAATCGAGC	0.988 ± 0.047
TGGGTTGTAT	0.998 ± 0.02
GCTCTTGATG	0.98 ± 0.041
ATGGGCAGCT	1.02 ± 0.011
TTGAGGAATA	0.9922 ± 0.008
GTGGGTATGT	0.983 ± 0.017
AAGGGGTTGG	1.01 ± 0.019
TCAGGGGCTG	0.974 ± 0.043
CAAGATTGGA	0.961 ± 0.025
TTAAAAAGAT	1.04 ± 0.051
ACAGTGCGGC	0.961 ± 0.035
GAGAGTATAT	1.01 ± 0.012
GGTAGTGAGC	1.02 ± 0.02
CGAGGGGTTA	1.01 ± 0.022
AGGTGGGGAT	0.994 ± 0.021
TTTTTGGCGT	1.02 ± 0.033
GCGGAGGCGG	0.976 ± 0.031
TGGGACCGGG	1 ± 0.059
TGTGGGGCCA	0.96 ± 0.038
